T1: SpaO^L, full length product of spaO, N-terminal His-tagged (S. Typhimurium, UniProt P40699 1-303)
T1 construct: SpaO, full length product (SpaO^L) of the spaO gene, S. Typhimurium SPI-1 T3SS sorting platform component; The same plasmid gives both SpaO^L and the internally translated SpaO^S; also called His-tagged SpaO; source: E. coli Lemo21(DE3) harboring plasmid pSB3775, purified (Ni-NTA, Superose 6); not shown: His tag, N-terminal, kept
T1 sequence: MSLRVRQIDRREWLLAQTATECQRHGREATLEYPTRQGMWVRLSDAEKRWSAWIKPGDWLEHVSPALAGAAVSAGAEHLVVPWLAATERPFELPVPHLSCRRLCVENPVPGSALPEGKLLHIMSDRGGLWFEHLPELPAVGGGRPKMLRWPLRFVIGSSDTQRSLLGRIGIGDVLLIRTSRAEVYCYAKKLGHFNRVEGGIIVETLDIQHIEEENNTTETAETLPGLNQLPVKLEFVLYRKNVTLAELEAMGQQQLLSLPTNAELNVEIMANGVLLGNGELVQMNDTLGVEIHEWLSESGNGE

B1: SpaO^S, short form of SpaO composed of the C-terminal 101 amino acids (domain or fragment)
chain: VETLDIQHIEEENNTTETAETLPGLNQLPVKLEFVLYRKNVTLAELEAMGQQQLLSLPTNAELNVEIMANGVLLGNGELVQMNDTLGVEIHEWLSESGNGE
notes: SpaO^S, internally translated product of spaO starting at the internal GTG codon 203; the C-terminal 101 amino acids of SpaO, S. Typhimurium; Translated from an internal GTG start codon, so the first residue is probably Met rather than Val (surmised); source: E. coli Lemo21(DE3) harboring plasmid pSB3775, co-purified with His-tagged SpaO^L (Ni-NTA, Superose 6)

Key:
[1] = biological target: FLAG-tagged SpaO^L67pBpa (Salmonella enterica Typhimurium SL1344) (UniProt P40699); test: cross-linking; site-specific in vivo photo-cross-linking: pBpa in SpaO, live S. Typhimurium in PBS irradiated at 365 nm; whole cell lysates on SDS-PAGE, anti-FLAG western blot, with and without UV
[2] = biological target: T1, SpaO^L, full length product of spaO, …; test: SEC; N-terminal His-tagged SpaO made in E. coli, purified on Ni-NTA, run on Superose 6 10/300 GL; fractions analysed by SDS-PAGE and Coomassie; SpaO^L and SpaO^S made from one plasmid and co-purified; conditions: both partners purified

Molecule	stoichiometry N [1]	stoichiometry N [2] [SpaO^S per SpaO^L]
FLAG-tagged SpaO^L67pBpa (from UniProt P40699 1-303) (natural protein)	4	
B1		2
